Like-named read-outs stand apart in the source and are kept apart here. Bridges are numbered along the chain shown (N, C = ends). Where no end group is shown, it is not given here. [ ]: non-standard residue; d: D form. The star is where a group is joined. Pentanoyl(5-guanidino) = NC(N)=NCCCCC(=O)*; hArg = N=C(N)NCCCC[C@H](N)C(=O)O; dCha = N[C@H](CC1CCCCC1)C(=O)O; Aib = CC(C)(N)C(=O)O
Legend:
[1] = biological target: T1, human melanin concentrating hormone type 2 receptor (MCH-2R) (human, UniProt Q969V1 1-340); test: cell-based or functional assay
T1 sequence (Q969V1 whole entry, form in doubt): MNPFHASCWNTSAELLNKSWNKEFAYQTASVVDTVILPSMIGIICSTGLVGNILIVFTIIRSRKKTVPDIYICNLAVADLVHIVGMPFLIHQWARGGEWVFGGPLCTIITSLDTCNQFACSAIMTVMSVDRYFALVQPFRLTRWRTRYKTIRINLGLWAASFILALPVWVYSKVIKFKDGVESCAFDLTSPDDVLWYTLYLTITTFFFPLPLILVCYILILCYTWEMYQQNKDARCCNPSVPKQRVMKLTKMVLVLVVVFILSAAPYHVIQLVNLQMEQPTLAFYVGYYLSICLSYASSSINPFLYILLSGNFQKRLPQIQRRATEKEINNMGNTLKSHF

[2] = biological target: T1, human melanin concentrating hormone …; test: SPA competition with [125I]-human MCH (Phe13, Tyr19) on receptor membranes
Description: (§1) For the SPA-based assay, WGA-PVT beads (NEN Life Sciences Products) were resuspended in Dulbecco's PBS with calcium and magnesium (500 mg beads in 4 ml PBS). […] The suspension was mixed gently for 20 minutes, 12.3 ml of assay buffer and protease inhibitors were added (final concentration given): 2 μg/ml leupeptin, 10 μM phosphoramidon, 40 μg/ml bacitracin, 5 μg/ml aprotinin, 0.1 mM Pefabloc.
(§2) Coated beads were kept on ice until use. […] Binding reactions were allowed to proceed at room temperature for 3 hours. Quantitation was performed by scintillation counting (TopCount device).

human MCH-1R [3] = biological target: T2, human MCH-1R (human, UniProt Q99705 1-353); test: cell-based or functional assay
T2 sequence (Q99705 whole entry, form in doubt): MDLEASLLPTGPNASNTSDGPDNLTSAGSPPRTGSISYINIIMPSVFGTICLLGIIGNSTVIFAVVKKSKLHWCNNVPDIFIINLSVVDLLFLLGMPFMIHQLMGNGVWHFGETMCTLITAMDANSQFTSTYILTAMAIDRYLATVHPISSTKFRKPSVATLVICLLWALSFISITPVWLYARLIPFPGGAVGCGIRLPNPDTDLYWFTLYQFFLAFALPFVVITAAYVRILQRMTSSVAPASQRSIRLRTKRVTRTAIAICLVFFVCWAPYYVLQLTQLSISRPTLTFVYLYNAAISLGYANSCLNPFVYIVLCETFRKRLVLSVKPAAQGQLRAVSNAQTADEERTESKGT

human MCH-1R [4] = biological target: T2, human MCH-1R; test: SPA competition with [125I]-human MCH (Phe13, Tyr19) on receptor membranes
Description: as §1, §2

human MCH-1R [5] = biological target: T2, human MCH-1R; test: as above; remark: listed apart in the source
Description: as §1, §2

[6] = biological target: T1, human melanin concentrating hormone …; test: as above; remark: listed apart in the source
Description: as §1, §2

human MCH-1R [7] = biological target: T2, human MCH-1R; test: cell-based or functional assay; remark: listed apart in the source
[8] = biological target: T1, human melanin concentrating hormone …; test: cell-based or functional assay; remark: listed apart in the source

Row | Binder | Activation % at 10 µM (aequorin functional assay) [1] | EC50 (aequorin functional assay) [1] | IC50 [2] | Activation % at 10 µM (aequorin functional assay) (human MCH-1R [3]) | EC50 (aequorin functional assay) (human MCH-1R [3]) | IC50 (human MCH-1R [4]) | IC50 (human MCH-1R [5]) | IC50 [6] | Activation % at 10 µM (aequorin functional assay) (human MCH-1R [7]) | EC50 (aequorin functional assay) (human MCH-1R [7]) | Activation % at 10 µM (aequorin functional assay) [8] | EC50 (aequorin functional assay) [8] | % @ concentration (human MCH-1R [5])
1 | AFDMLRCMLGRVYRPCWQV (disulfide 7-16, positions 1-19 as in hMCH; also called Ala^1) [SEQ. ID. NO. 41] | 96% | 114 nM | 2.1 nM |  |  |  |  |  |  |  |  |  | 
2 | DADMLRCMLGRVYRPCWQV (disulfide 7-16, also called Ala^2) [SEQ. ID. NO. 42] | 102% | 28.6 nM | 1.1 nM | 97% | 9.9 nM | 0.2 nM |  |  |  |  |  |  | 
3 | Ac-RCML[dS]RVYRPC-NH2 (disulfide 2-11 (inferred), also called D-Ser^10) [SEQ. ID. NO. 19] |  |  |  |  |  |  | 31 nM | 1.6 nM | 47% | 2560 nM | 113% | 7 nM | 
4 | RCMLGXVYRPC (Arg(NO2)^11 (nitroarginine), also called Arg(NO2)^11) [SEQ. ID. NO. 25] |  |  |  |  |  |  |  | 4.9 nM |  | > 1000 nM | 39% | > 10000 nM | 80 % @ 1 µM
5 | RCMLGXVYRPC (Harg^11 (homoarginine), also called Harg^11) [SEQ. ID. NO. 24] |  |  |  |  |  |  | 6.9 nM | 0.4 nM | 72% | 1200 nM | 43% | > 10000 nM | 
6 | Ac-RCML[dA]RVYRPC-NH2 (disulfide 2-11; SMILES CSCC[C@@H]1NC(=O)[C@@H](NC(=O)[C@H](CCCNC(=N)N)NC(C)=O)CSSC[C@@H](C(N)=O)NC(=O)[C@@H]2CCCN2C(=O)[C@H](CCCNC(=N)N)NC(=O)[C@H](Cc2ccc(O)cc2)NC(=O)[C@H](C(C)C)NC(=O)[C@H](CCCNC(=N)N)NC(=O)[C@@H](C)NC(=O)[C@H](CC(C)C)NC1=O, also called D-Ala^10) [SEQ. ID. NO. 13] |  |  |  |  |  |  | 490 nM | 3.2 nM | 40% | 1360 nM | 103% | 16 nM | 
7 | RCMLXRVYRPC (Phg^10 (phenylglycine), also called Phg^10) [SEQ. ID. NO. 12] |  |  |  |  |  |  | 2.9 nM | 312 nM | 0.1% | > 10000 nM | 80% | 140 nM | 
8 | Ac-RCML[dF]RVYRPC-NH2 (disulfide 2-11 (inferred), also called D-Phe^10) [SEQ. ID. NO. 17] |  |  |  |  |  |  | 18 nM | 47 nM | 5% | > 10000 nM | 102% | 25 nM | 
9 | Ac-RCML[dN]RVYRPC-NH2 (disulfide 2-11 (inferred), also called D-Asn^10) [SEQ. ID. NO. 18] |  |  |  |  |  |  | 97 nM | 2.3 nM | 39% | 3000 nM | 106% | 24 nM | 
10 | [Pentanoyl(5-guanidino)]CML[dA]RVYRPC-NH2 (disulfide 2-11 (inferred); not fully specified, also called (?-NH2)-Arg^6, D-Ala^10) [SEQ. ID. NO. 34] |  |  |  |  |  |  | 30 nM | 250 nM | 4% | 2000 nM | 110% | 31 nM | 
11 | Ac-RCML[dCha]RVYRPC-NH2 (disulfide 2-11 (inferred), also called D-Cha^10) [SEQ. ID. NO. 16] |  |  |  |  |  |  | 11 nM | 74 nM | 0.1% | > 10000 nM | 74% | 207 nM | 
12 | Ac-RCML[dA][hArg]VYRPC-NH2 (disulfide 2-11 (inferred), also called D-Ala^10, Harg^11) [SEQ. ID. NO. 36] |  |  |  |  |  |  | 56 nM | 0.9 nM | 0.1% | > 10000 nM | 74% | 19 nM | 
13 | Ac-RCMLARVYRPC-NH2 (disulfide 2-11; SMILES CSCC[C@@H]1NC(=O)[C@@H](NC(=O)[C@H](CCCNC(=N)N)NC(C)=O)CSSC[C@@H](C(N)=O)NC(=O)[C@@H]2CCCN2C(=O)[C@H](CCCNC(=N)N)NC(=O)[C@H](Cc2ccc(O)cc2)NC(=O)[C@H](C(C)C)NC(=O)[C@H](CCCNC(=N)N)NC(=O)[C@H](C)NC(=O)[C@H](CC(C)C)NC1=O, also called Ala^10) [SEQ. ID. NO. 7] |  |  |  |  |  |  | 0.59 nM | 4.6 nM | 104% | 31 nM | 97% | 7.7 nM | 
14 | Ac-RCMLSRVYRPC-NH2 (disulfide 2-11; SMILES CSCC[C@@H]1NC(=O)[C@@H](NC(=O)[C@H](CCCNC(=N)N)NC(C)=O)CSSC[C@@H](C(N)=O)NC(=O)[C@@H]2CCCN2C(=O)[C@H](CCCNC(=N)N)NC(=O)[C@H](Cc2ccc(O)cc2)NC(=O)[C@H](C(C)C)NC(=O)[C@H](CCCNC(=N)N)NC(=O)[C@H](CO)NC(=O)[C@H](CC(C)C)NC1=O, also called Ser^10) [SEQ. ID. NO. 10] |  |  |  |  |  |  | 0.32 nM | 52 nM | 104% | 65 nM | 95% | 44 nM | 
15 | RCMLLRVYRPC (also called Leu^10) [SEQ. ID. NO. 8] |  |  |  |  |  |  | 0.06 nM | 20 nM | 106% | 23 nM | 80% | 54 nM | 
16 | Ac-RCMLGRVFRPC-NH2 (disulfide 2-11; SMILES CSCC[C@@H]1NC(=O)[C@@H](NC(=O)[C@H](CCCNC(=N)N)NC(C)=O)CSSC[C@@H](C(N)=O)NC(=O)[C@@H]2CCCN2C(=O)[C@H](CCCNC(=N)N)NC(=O)[C@H](Cc2ccccc2)NC(=O)[C@H](C(C)C)NC(=O)[C@H](CCCNC(=N)N)NC(=O)CNC(=O)[C@H](CC(C)C)NC1=O, also called Phe^13) [SEQ. ID. NO. 27] |  |  |  |  |  |  | 1 nM | 1.5 nM | 96% | 46 nM | 94% | 12 nM | 
17 | Ac-RCML[Aib]RVYRPC-NH2 (disulfide 2-11; SMILES CSCC[C@@H]1NC(=O)[C@@H](NC(=O)[C@H](CCCNC(=N)N)NC(C)=O)CSSC[C@@H](C(N)=O)NC(=O)[C@@H]2CCCN2C(=O)[C@H](CCCNC(=N)N)NC(=O)[C@H](Cc2ccc(O)cc2)NC(=O)[C@H](C(C)C)NC(=O)[C@H](CCCNC(=N)N)NC(=O)C(C)(C)NC(=O)[C@H](CC(C)C)NC1=O, also called Aib^10) [SEQ. ID. NO. 11] |  |  |  |  |  |  | 90 nM | 2.2 nM | 22% | 1900 nM | 104% | 24 nM | 
